Laboratory results as given in patent US6943279B1, “Amino polyol amine oxidase polynucleotides and related polypeptides and methods of use” (priority 1999, dated 2005).
Where a chain is given by its changes, count along the chain named. Names may count otherwise. Read-outs that look alike come from different tables or passages of the source.

Assays:
APAO enzyme = assay type: biochemical, Exophiala spinifera
Method: The following assay was used to determine the substrate specificity of the APAO enzyme. […] The APAO enzyme was recombinant enzyme produced,as GST fusion in E. coli, purified over a glutathione affinity column and cleaved with thrombin to remove the GST. All components were mixed at room temperature. The initial rate was determined in a spectrophotometer at 572 nm over one minute by absorbance units/second (BLANK). Ten microliters of APAO at 70 ug/ml was added and mixed. The initial rate was again determined at 572 nm over one minute in absorbance units/second (SAMPLE). The rates were converted to absorbance units/minute. The BLANK value was subtracted from the SAMPLE value. The absorbance units were converted to μM H2O2 wherein 1 μM H2O2 equals 0.138 absorbance units at pH 8.0.

APAO = APAO activity of crude cell-free extract, TLC; assay type: biochemical, Exophiala spinifera; settings: for modification by the crude extract: crude cell-free extract of induced Exophiala spinifera, TLC
Method: For analysis of APAO activity, an alternative method was used. Equal volumes of sample and ^14C-AP1 (1 mg/ml, pH 8, 50 mM sodium phosphate) were incubated at room temperature for one to six days. Analytical thin-layer chromatography was then carried out on C60 HPK silica gel plates (Whatman #4807-700; 10×10 cm; 0.2 mm thick). After application of from 0.1 to 2 μl of aqueous sample, the plates were air-dried and developed in CHCl3:MeOH:CH3COOH:H20 (55:36:8:1). Plates were then air dried, and exposed to Phosphorlmager screen (Molecular Dynamics) or autoradiographic film. A Storm™ Phosphorlmager (Molecular Dynamics) was used to scan the image produced on the screen.
A cell-free extract that contains the deaminase activity was obtained by subjecting substrate-induced Exophiala spinifera cells to disruption using a Bead Beater™ in 50 mM Na-phosphate, pH 8.0, and recovering the cell-free supernatant by centrifugation and 0.45 micron filtration. Catabolic activity is assayed by incubating extracts with AP1 (hydrolyzed fumonisin BI backbone) or “^4C-labelled AP1 with the extract and evaluating by TLC on C18 or C60 silica. […] Other amine-containing substrates were tested for modification by the crude extract. […] Preparative amounts of the product, named 2-OP, have also been purified and analyzed by C13 nmr.

[1] = Mutated APAO lysates from E coli, Amplex Red assay, substrate FB1; assay type: biochemical
[2] = Mutated APAO lysates from E coli, Amplex Red assay, substrate AP1; assay type: biochemical; settings: Glyc(−) APAO lysates from E coli
[3] = as above; assay type: biochemical
Method: The following assay was used to determine the substrate specificity of the APAO enzyme. Reaction mix: 436 μl of 200 mM Na-phosphate, pH8.0; 50 μl substrate (10 mM); 2 μl Amplex Red (1 mg in 200 μl DMSO); and 2 μof Peroxidase (5000 U/ml). The APAO enzyme was recombinant enzyme produced,as GST fusion in E. coli, purified over a glutathione affinity column and cleaved with thrombin to remove the GST. All components were mixed at room temperature. The initial rate was determined in a spectrophotometer at 572 nm over one minute by absorbance units/second (BLANK). Ten microliters of APAO at 70 ug/ml was added and mixed. The initial rate was again determined at 572 nm over one minute in absorbance units/second (SAMPLE). The rates were converted to absorbance units/minute. The BLANK value was subtracted from the SAMPLE value. The absorbance units were converted to μM H2O2 wherein 1 μM H2O2 equals 0.138 absorbance units at pH 8.0.
The APAO molecules mutated at specific cysteines were tested in a bacterial expression system using the previously described Amplex Red assay. The results can be seen in the table below entitled “Cys(−) APAO lysates from E. coli.” The mutated APAO molecules can then be tested in maize, linked to a signal peptide, as previously described. Either one of the cysteines or two or three together could be mutated to serines without any measured loss in APAO enzyme activity of the E coli-expressed enzyme. […] The mutated versions of APAO operably linked to a signal sequence, which retain function when expressed as recombinant fusion proteins in E. coli may also provide additional stability or foldability when expressed in plants or other secretion expression systems.

[4] = 0.5 mg/mL substrate, pH 8.0, room temperature
[5] = 1 mM substrate, pH 8.0, room temperature
[6] = Cys(−) APAO lysates from E coli
[7] = Glyc(−) APAO lysates from E coli
[8] = Triple Cys(−) APAO lysates from E coli

For `CCCC[C@@H](C)[C@@H](OC(=O)C[C@@H](CC(=O)O)C(=O)O)[C@H](C[C@@H](C)CCCCCC[C@@H](O)C[C@H](O)[C@H](C)N)OC(=O)C[C@@H](CC(=O)O)C(=O)O` [Fumonisin B2], the RATE (APAO enzyme; [4]) was 0.3058 μM H2O2/min.

Work on `CCCC[C@@H](C)[C@@H](OC(=O)C[C@@H](CC(=O)O)C(=O)O)[C@H](C[C@@H](C)C[C@H](O)CCCCCC[C@H](O)[C@H](C)N)OC(=O)C[C@@H](CC(=O)O)C(=O)O` [Fumonisin B3] yielded an RATE (APAO enzyme; [5]) of 0.1449 μM H2O2/min.

With `CCCC[C@@H](C)[C@@H](OC(=O)C[C@@H](CC(=O)O)C(=O)O)[C@H](C[C@@H](C)CCCCCCCC[C@H](O)[C@H](C)N)OC(=O)C[C@@H](CC(=O)O)C(=O)O` [Fumonisin B4] the RATE (APAO enzyme; [4]) was 0.1728 μM H2O2/min.

For `NCCc1ccc(O)c(O)c1` [dopamine], the RATE (APAO enzyme; pH 8) was 0.0040 μM H2O2/min.

For `CNC[C@H](O)c1ccc(O)c(O)c1` [epinephrine], the RATE (APAO enzyme; pH 8) was 0.0071 μM H2O2/min.

With `NC[C@H](O)c1ccc(O)c(O)c1` [norepinephrine] the RATE (APAO enzyme; [5]) was 0.0087 μM H2O2/min.

In the case of `CCCCCCCCCCCCCC[C@@H](O)[C@@H](O)[C@@H](N)CO` [phytosphingosine], the “modification by the crude extract” value (APAO) is reported as “apparently not modified”.

With `NCCCNCCCCNCCCN` [spermine] the RATE (APAO enzyme; pH 8) was 0.0002 μM H2O2/min.

For `CCCCCCCCCCCCCCC[C@@H](O)[C@@H](N)CO` [sphinganine], the “modification by the crude extract” value (APAO) was “apparently not modified”.

In the case of `CCCCCCCCCCCCC/C=C/[C@@H](O)[C@@H](N)CO` [sphingosine], the “modification by the crude extract” value (APAO) is reported as “apparently not modified”.

B1: APAO: amino polyol amine oxidase from Exophiala spinifera, ATCC 74269 (SEQ ID NO: 23) (protein, listed as Exophiala spinifera)
chain: MALAPSYINPPNVASPAGYSHVGVGPDGGRYVTIAGQIGQDASGVTDPAYEKQVAQAFANLRACLAAVGATSNDVTKLNYYIVDYAPSKLTAIGDGLKATFALDRLPPCTLVPVSALSSPEYLFEVDATALVPGHTTPDNVADVVVVGAGLSGLETARKVQAAGLSCLVLEAMDRVGGKTLSVQSGPGRTTINDLGAAWINDSNQSEVSRLFERFHLEGELQRTTGNSIHQAQDGTTTTAPYGDSLLSEEVASALAELLPVWSQLIEEHSLQDLKASPQAKRLDSVSFAHYCEKELNLPAVLGVANQITRALLGVEAHEISMLFLTDYIKSATGLSNIFSDKKDGGQYMRCKTGMQSICHAMSKELVPGSVHLNTPVAEIEQSASGCTVRSASGAVFRSKKVVVSLPTTLYPTLTFSPPLPAEKQALAENSILGYYSKIVFVWDKPWWREQGFSGVLQSSCDPISFARDTSIDVDRQWSITCFMVGDPGRKWSQQSKQVRQKSVWDQLRAAYENAGAQVPEPANVLEIEWSKQQYFQGAPSAVYGLNDLITLGSALRTPFKSVHFVGTETSLVWKGYMEGAIRSGQRGAAEVVASLVPAA
For B1, the Conclusion [1, 6] was “Slightly active (wt)”, the “M H2O2/min” value [1, 6] was 0.11 μM H2O2/min and the Conclusion [1, 7] was “Slightly active (wt)”. The “M H2O2/min” value [1, 7] was 0.12 μM H2O2/min, the Conclusion [1, 8] was “Slightly active (wt)” and the “M H2O2/min” value [1, 8] was 0.27 μM H2O2/min. The Conclusion [2] was “Active (wild type)”, the “M H2O2/min” value [2] was 1.92 μM H2O2/min and the Conclusion [3, 6] was “Active (wild type)”. The “M H2O2/min” value [3, 6] was 2.14 μM H2O2/min, the Conclusion [3, 8] was “Active (wild type)” and the “M H2O2/min” value [3, 8] was 1.16 μM H2O2/min. The “AP1 catabolic activity after heating” value (APAO; following 30 min. at 65° C. or 100° C.) was “no AP1 catabolic activity remained”, the “activity on intact FB1” value (APAO; partially purified APAO enzyme from Exophiala spinifera) was “little or no activity” and the “activity on intact FB1 and other B-series fumonisins” value (APAO enzyme; recombinant APAO enzyme expressed in E. coli) was “significant but reduced activity”.

B2: C359S, C461S: APAO mutated at both cysteines 359 and 461 (SEQ ID NO: 51), plasmid PHP16738 (protein)
chain: KDNVADVVVVGAGLSGLETARKVQAAGLSCLVLEAMDRVGGKTLSVQSGPGRTTINDLGAAWINDSNQSEVSRLFERFHLEGELQRTTGNSIHQAQDGTTTTAPYGDSLLSEEVASALAELLPVWSQLIEEHSLQDLKASPQAKRLDSVSFAHYCEKELNLPAVLGVANQITRALLGVEAHEISMLFLTDYIKSATGLSNIFSDKKDGGQYMRCKTGMQSISHAMSKELVPGSVHLNTPVAEIEQSASGCTVRSASGAVFRSKKVVVSLPTTLYPTLTFSPPLPAEKQALAENSILGYYSKIVFVWDKPWWREQGFSGVLQSSSDPISFARDTSIDVDRQWSITCFMVGDPGRKWSQQSKQVRQKSVWDQLRAAYENAGAQVPEPANVLEIEWSKQQYFQGAPSAVYGLNDLITLGSALRTPFKSVHFVGTETSLVWKGYMEGAIRSGQRGAAEVVASLVPAA
modifications: Cys (-) APAO; removal of cys 359 and 461 (Exophiala spinifera)
For B2, the Conclusion [1, 6] was “Slightly active”, the “M H2O2/min” value [1, 6] was 0.16 μM H2O2/min and the Conclusion [3, 6] was “Fully/More Active”. For the same molecule, the “M H2O2/min” value [3, 6] was 3.90 μM H2O2/min and the Conclusion ([3]; Cys(−) APAO lysates from E coli, listed as C359S+C461S) was “more APAO activity in crude lysates than wild type enzyme”.

B3: C167S, C359S, C461S: triply Cys-mutated version of APAO (SEQ ID NO: 53), plasmid PHP17089 (protein)
chain: B2 chain with C30S
modifications: Cys (-) APAO; removal of cys 169, 359, and 461 (Exophiala spinifera)
With B3 the Conclusion [1, 6] was “Slightly active”, the “M H2O2/min” value [1, 6] was 0.25 μM H2O2/min and the Conclusion [1, 8] was “Slightly active”. The “M H2O2/min” value [1, 8] was 0.26 μM H2O2/min, the Conclusion [3, 6] was “Slightly active” and the “M H2O2/min” value [3, 6] was 0.27 μM H2O2/min. The Conclusion [3, 8] was “Slightly Active” and the “M H2O2/min” value [3, 8] was 0.27 μM H2O2/min.

B4: C461S: APAO mutated at cysteine 461 (SEQ ID NO: 49), plasmid PHP16737 (protein)
chain: B2 chain with S222C
modifications: Cys (-) APAO; removal of cysteine 461 (Exophiala spinifera)
With B4 the Conclusion [1, 6] was “Slightly active”, the “M H2O2/min” value [1, 6] was 0.14 μM H2O2/min and the Conclusion [3, 6] was “Fully Active”. For the same molecule, the “M H2O2/min” value [3, 6] was 2.25 μM H2O2/min.
